Assays:
[1] = target: GCC expressed on T84 cells (UniProt P25092); assay: flow cytometry on T84 cells expressing GCC, 300 nm [sic], PE-anti human Fc secondary; Blank 30.7
[2] = target: GCC expressed on T84 cells (UniProt P25092); assay: flow cytometry on T84 cells expressing GCC, 300 nm [sic], PE-anti human Fc secondary; Blank 15.0

GCC expressed on T84 cells, sequence (P25092 24-1073 limits assumed): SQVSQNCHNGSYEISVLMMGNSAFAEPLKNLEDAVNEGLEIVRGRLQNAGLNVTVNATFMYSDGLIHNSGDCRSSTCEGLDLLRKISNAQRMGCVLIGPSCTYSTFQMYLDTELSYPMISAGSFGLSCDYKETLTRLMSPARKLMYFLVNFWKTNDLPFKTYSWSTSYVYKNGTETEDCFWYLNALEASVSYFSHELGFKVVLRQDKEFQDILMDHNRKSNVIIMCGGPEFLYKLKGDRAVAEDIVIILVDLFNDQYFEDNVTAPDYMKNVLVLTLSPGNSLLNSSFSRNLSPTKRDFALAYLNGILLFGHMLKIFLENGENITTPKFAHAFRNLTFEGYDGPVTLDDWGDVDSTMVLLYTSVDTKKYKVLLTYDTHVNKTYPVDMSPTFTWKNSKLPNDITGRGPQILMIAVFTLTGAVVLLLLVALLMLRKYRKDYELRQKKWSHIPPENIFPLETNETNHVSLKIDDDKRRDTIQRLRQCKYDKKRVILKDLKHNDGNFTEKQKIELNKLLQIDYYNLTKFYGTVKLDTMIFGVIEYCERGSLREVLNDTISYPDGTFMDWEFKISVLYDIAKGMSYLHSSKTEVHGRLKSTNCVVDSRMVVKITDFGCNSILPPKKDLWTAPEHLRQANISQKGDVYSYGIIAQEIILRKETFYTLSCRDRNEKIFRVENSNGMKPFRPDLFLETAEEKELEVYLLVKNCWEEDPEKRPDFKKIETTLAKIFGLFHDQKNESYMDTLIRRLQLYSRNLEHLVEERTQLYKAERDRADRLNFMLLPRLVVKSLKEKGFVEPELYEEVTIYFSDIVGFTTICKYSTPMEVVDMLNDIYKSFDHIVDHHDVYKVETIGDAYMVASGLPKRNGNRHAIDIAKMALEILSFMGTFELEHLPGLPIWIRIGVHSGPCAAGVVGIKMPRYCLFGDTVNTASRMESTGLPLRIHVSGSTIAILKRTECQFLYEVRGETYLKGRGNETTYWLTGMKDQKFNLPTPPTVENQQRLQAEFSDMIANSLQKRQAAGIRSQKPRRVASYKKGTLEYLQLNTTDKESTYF

## Human IgG1 isotype (antibody)
[1]
  Geometric mean MFI: 30.7
[2]
  Geometric mean MFI: 17.7
